target: mixture of three Der p 2 specific recombinant human IgE clones H10, H12, P4E (human) (UniProt P01854); assay: RBL-SX38 IgE displacement, FACS
Sequence (P01854 other isoform, or with tags, fused parts or gaps): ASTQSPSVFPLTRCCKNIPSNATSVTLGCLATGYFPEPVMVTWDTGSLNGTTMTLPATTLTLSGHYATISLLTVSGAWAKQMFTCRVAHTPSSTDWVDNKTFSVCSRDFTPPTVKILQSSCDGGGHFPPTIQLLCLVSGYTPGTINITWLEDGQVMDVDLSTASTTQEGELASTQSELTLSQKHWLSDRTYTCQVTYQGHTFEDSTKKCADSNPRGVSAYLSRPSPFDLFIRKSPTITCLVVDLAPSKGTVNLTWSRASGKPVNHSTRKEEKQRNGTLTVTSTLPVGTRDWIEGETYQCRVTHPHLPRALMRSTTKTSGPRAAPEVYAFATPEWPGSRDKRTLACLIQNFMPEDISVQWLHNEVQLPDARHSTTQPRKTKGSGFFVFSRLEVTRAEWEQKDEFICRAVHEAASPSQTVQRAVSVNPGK

Row | Binder | EC50 [nM] | Max effect/effect 1 µM [%]
1 | NIgG4E1A1(RS) (Fc fusion) chain 1: DVQLQESGGGLVQAGGSLRLSCLASGRTFTTTSGYNMGWFRQAPGKEREFVAGIKWVSGSNRAYAESVKGRFTISRDNAKNTVYLQMNSLKPEDTAVYYCAAATGQSYVPIREYEYVYWGQGTQVTVSRSGPPCPPCPAPEFLGGPSVFLFPPKPKDTLMISRTPEVTCVVVDVSQEDPEVQFNWYVDGVEVHNAKTKPREEQFNSTYRVVSVLTVLHQDWLNGKEYKCKVSNKGLPSSIEKTISKAKGQPREPQVYTLPPCQEEMTKNQVSLWCLVKGFYPSDIAVEWESNGQPENNYKTTPPVLDSDGSFFLYSRLTVDKSRWQEGNVFSCSVMHEALHNHYTQKSLSLSLGK chain 2: EVQLLESGGGLVQPGGSLRLSCAASGFTFGNYDMAWVRQAPGKRPEWVSSIDTGGDITHYADSVKGRFTISRDNAKNTLYLQMNSLRPEDTAVYWCATDEEYALGPNEFDYYGQGTLVTVSSRSGPPCPPCPAPEFLGGPSVFLFPPKPKDTLMISRTPEVTCVVVDVSQEDPEVQFNWYVDGVEVHNAKTKPREEQFNSTYRVVSVLTVLHQDWLNGKEYKCKVSNKGLPSSIEKTISKAKGQPREPQVCTLPPSQEEMTKNQVSLSCAVKGFYPSDIAVEWESNGQPENNYKTTPPVLDSDGSFFLVSRLTVDKSRWQEGNVFSCSVMHEALHNHYTQKSLSLSLGK | 8.7 | 97
2 | CIgG4D2A1(G4S)2 (Fc fusion) chain 1: GPPCPPCPAPEFLGGPSVFLFPPKPKDTLMISRTPEVTCVVVDVSQEDPEVQFNWYVDGVEVHNAKTKPREEQFNSTYRVVSVLTVLHQDWLNGKEYKCKVSNKGLPSSIEKTISKAKGQPREPQVYTLPPCQEEMTKNQVSLWCLVKGFYPSDIAVEWESNGQPENNYKTTPPVLDSDGSFFLYSRLTVDKSRWQEGNVFSCSVMHEALHNHYTQKSLSLSLGKGGGGSGGGGSDVQLQESGGGLVEAGGSLRLSCVASGRTFSGWSMGWFRQAPGKEREFVAAISWVGSWIGGTVYSNSVKGRFTISRDNARTTVYLQMNSLKPEDTAVYFCAAANSETPRIFASEYDYWGQGTQVTVS chain 2: GPPCPPCPAPEFLGGPSVFLFPPKPKDTLMISRTPEVTCVVVDVSQEDPEVQFNWYVDGVEVHNAKTKPREEQFNSTYRVVSVLTVLHQDWLNGKEYKCKVSNKGLPSSIEKTISKAKGQPREPQVCTLPPSQEEMTKNQVSLSCAVKGFYPSDIAVEWESNGQPENNYKTTPPVLDSDGSFFLVSRLTVDKSRWQEGNVFSCSVMHEALHNHYTQKSLSLSLGKGGGGSGGGGSEVQLLESGGGLVQPGGSLRLSCAASGFTFGNYDMAWVRQAPGKRPEWVSSIDTGGDITHYADSVKGRFTISRDNAKNTLYLQMNSLRPEDTAVYWCATDEEYALGPNEFDYYGQGTLVTVSS | 39 | 99
3 | CIgG4D2A1(G4S)3 (Fc fusion) chain 1: GPPCPPCPAPEFLGGPSVFLFPPKPKDTLMISRTPEVTCVVVDVSQEDPEVQFNWYVDGVEVHNAKTKPREEQFNSTYRVVSVLTVLHQDWLNGKEYKCKVSNKGLPSSIEKTISKAKGQPREPQVYTLPPCQEEMTKNQVSLWCLVKGFYPSDIAVEWESNGQPENNYKTTPPVLDSDGSFFLYSRLTVDKSRWQEGNVFSCSVMHEALHNHYTQKSLSLSLGKGGGGSGGGGSGGGGSDVQLQESGGGLVEAGGSLRLSCVASGRTFSGWSMGWFRQAPGKEREFVAAISWVGSWIGGTVYSNSVKGRFTISRDNARTTVYLQMNSLKPEDTAVYFCAAANSETPRIFASEYDYWGQGTQVTVS chain 2: GPPCPPCPAPEFLGGPSVFLFPPKPKDTLMISRTPEVTCVVVDVSQEDPEVQFNWYVDGVEVHNAKTKPREEQFNSTYRVVSVLTVLHQDWLNGKEYKCKVSNKGLPSSIEKTISKAKGQPREPQVCTLPPSQEEMTKNQVSLSCAVKGFYPSDIAVEWESNGQPENNYKTTPPVLDSDGSFFLVSRLTVDKSRWQEGNVFSCSVMHEALHNHYTQKSLSLSLGKGGGGSGGGGSGGGGSEVQLLESGGGLVQPGGSLRLSCAASGFTFGNYDMAWVRQAPGKRPEWVSSIDTGGDITHYADSVKGRFTISRDNAKNTLYLQMNSLRPEDTAVYWCATDEEYALGPNEFDYYGQGTLVTVSS | 28.8 | 99
4 | CIgG4D2A1(RS) (Fc fusion) chain 1: GPPCPPCPAPEFLGGPSVFLFPPKPKDTLMISRTPEVTCVVVDVSQEDPEVQFNWYVDGVEVHNAKTKPREEQFNSTYRVVSVLTVLHQDWLNGKEYKCKVSNKGLPSSIEKTISKAKGQPREPQVYTLPPCQEEMTKNQVSLWCLVKGFYPSDIAVEWESNGQPENNYKTTPPVLDSDGSFFLYSRLTVDKSRWQEGNVFSCSVMHEALHNHYTQKSLSLSLGKRSDVQLQESGGGLVEAGGSLRLSCVASGRTFSGWSMGWFRQAPGKEREFVAAISWVGSWIGGTVYSNSVKGRFTISRDNARTTVYLQMNSLKPEDTAVYFCAAANSETPRIFASEYDYWGQGTQVTVS chain 2: GPPCPPCPAPEFLGGPSVFLFPPKPKDTLMISRTPEVTCVVVDVSQEDPEVQFNWYVDGVEVHNAKTKPREEQFNSTYRVVSVLTVLHQDWLNGKEYKCKVSNKGLPSSIEKTISKAKGQPREPQVCTLPPSQEEMTKNQVSLSCAVKGFYPSDIAVEWESNGQPENNYKTTPPVLDSDGSFFLVSRLTVDKSRWQEGNVFSCSVMHEALHNHYTQKSLSLSLGKRSEVQLLESGGGLVQPGGSLRLSCAASGFTFGNYDMAWVRQAPGKRPEWVSSIDTGGDITHYADSVKGRFTISRDNAKNTLYLQMNSLRPEDTAVYWCATDEEYALGPNEFDYYGQGTLVTVSS | – | 6
5 | CIgG4D2A1(G4S)1 (Fc fusion) chain 1: GPPCPPCPAPEFLGGPSVFLFPPKPKDTLMISRTPEVTCVVVDVSQEDPEVQFNWYVDGVEVHNAKTKPREEQFNSTYRVVSVLTVLHQDWLNGKEYKCKVSNKGLPSSIEKTISKAKGQPREPQVYTLPPCQEEMTKNQVSLWCLVKGFYPSDIAVEWESNGQPENNYKTTPPVLDSDGSFFLYSRLTVDKSRWQEGNVFSCSVMHEALHNHYTQKSLSLSLGKGGGGSDVQLQESGGGLVEAGGSLRLSCVASGRTFSGWSMGWFRQAPGKEREFVAAISWVGSWIGGTVYSNSVKGRFTISRDNARTTVYLQMNSLKPEDTAVYFCAAANSETPRIFASEYDYWGQGTQVTVS chain 2: GPPCPPCPAPEFLGGPSVFLFPPKPKDTLMISRTPEVTCVVVDVSQEDPEVQFNWYVDGVEVHNAKTKPREEQFNSTYRVVSVLTVLHQDWLNGKEYKCKVSNKGLPSSIEKTISKAKGQPREPQVCTLPPSQEEMTKNQVSLSCAVKGFYPSDIAVEWESNGQPENNYKTTPPVLDSDGSFFLVSRLTVDKSRWQEGNVFSCSVMHEALHNHYTQKSLSLSLGKGGGGSEVQLLESGGGLVQPGGSLRLSCAASGFTFGNYDMAWVRQAPGKRPEWVSSIDTGGDITHYADSVKGRFTISRDNAKNTLYLQMNSLRPEDTAVYWCATDEEYALGPNEFDYYGQGTLVTVSS | 126 | 95

Further lines, results first:

Row | EC50 [nM] | Max effect/effect 1 µM [%] | Binder
6 | 7.1 | 96 | NIgG4E1A1(G4S)1 (Fc fusion) chain 1: DVQLQESGGGLVQAGGSLRLSCLASGRTFTTTSGYNMGWFRQAPGKEREFVAGIKWVSGSNRAYAESVKGRFTISRDNAKNTVYLQMNSLKPEDTAVYYCAAATGQSYVPIREYEYVYWGQGTQVTVSGGGGSGPPCPPCPAPEFLGGPSVFLFPPKPKDTLMISRTPEVTCVVVDVSQEDPEVQFNWYVDGVEVHNAKTKPREEQFNSTYRVVSVLTVLHQDWLNGKEYKCKVSNKGLPSSIEKTISKAKGQPREPQVYTLPPCQEEMTKNQVSLWCLVKGFYPSDIAVEWESNGQPENNYKTTPPVLDSDGSFFLYSRLTVDKSRWQEGNVFSCSVMHEALHNHYTQKSLSLSLGK chain 2: EVQLLESGGGLVQPGGSLRLSCAASGFTFGNYDMAWVRQAPGKRPEWVSSIDTGGDITHYADSVKGRFTISRDNAKNTLYLQMNSLRPEDTAVYWCATDEEYALGPNEFDYYGQGTLVTVSSGGGGSGPPCPPCPAPEFLGGPSVFLFPPKPKDTLMISRTPEVTCVVVDVSQEDPEVQFNWYVDGVEVHNAKTKPREEQFNSTYRVVSVLTVLHQDWLNGKEYKCKVSNKGLPSSIEKTISKAKGQPREPQVCTLPPSQEEMTKNQVSLSCAVKGFYPSDIAVEWESNGQPENNYKTTPPVLDSDGSFFLVSRLTVDKSRWQEGNVFSCSVMHEALHNHYTQKSLSLSLGK
7 | 3.7 | 88 | NIgG4D2A1(G4S)3 (Fc fusion) chain 1: DVQLQESGGGLVEAGGSLRLSCVASGRTFSGWSMGWFRQAPGKEREFVAAISWVGSWIGGTVYSNSVKGRFTISRDNARTTVYLQMNSLKPEDTAVYFCAAANSETPRIFASEYDYWGQGTQVTVSGGGGSGGGGSGGGGSGPPCPPCPAPEFLGGPSVFLFPPKPKDTLMISRTPEVTCVVVDVSQEDPEVQFNWYVDGVEVHNAKTKPREEQFNSTYRVVSVLTVLHQDWLNGKEYKCKVSNKGLPSSIEKTISKAKGQPREPQVYTLPPCQEEMTKNQVSLWCLVKGFYPSDIAVEWESNGQPENNYKTTPPVLDSDGSFFLYSRLTVDKSRWQEGNVFSCSVMHEALHNHYTQKSLSLSLGK chain 2: EVQLLESGGGLVQPGGSLRLSCAASGFTFGNYDMAWVRQAPGKRPEWVSSIDTGGDITHYADSVKGRFTISRDNAKNTLYLQMNSLRPEDTAVYWCATDEEYALGPNEFDYYGQGTLVTVSSGGGGSGGGGSGGGGSGPPCPPCPAPEFLGGPSVFLFPPKPKDTLMISRTPEVTCVVVDVSQEDPEVQFNWYVDGVEVHNAKTKPREEQFNSTYRVVSVLTVLHQDWLNGKEYKCKVSNKGLPSSIEKTISKAKGQPREPQVCTLPPSQEEMTKNQVSLSCAVKGFYPSDIAVEWESNGQPENNYKTTPPVLDSDGSFFLVSRLTVDKSRWQEGNVFSCSVMHEALHNHYTQKSLSLSLGK
8 | 4.8 | 94 | NIgG4E1A1(G4S)2 (Fc fusion) chain 1: DVQLQESGGGLVQAGGSLRLSCLASGRTFTTTSGYNMGWFRQAPGKEREFVAGIKWVSGSNRAYAESVKGRFTISRDNAKNTVYLQMNSLKPEDTAVYYCAAATGQSYVPIREYEYVYWGQGTQVTVSGGGGSGGGGSGPPCPPCPAPEFLGGPSVFLFPPKPKDTLMISRTPEVTCVVVDVSQEDPEVQFNWYVDGVEVHNAKTKPREEQFNSTYRVVSVLTVLHQDWLNGKEYKCKVSNKGLPSSIEKTISKAKGQPREPQVYTLPPCQEEMTKNQVSLWCLVKGFYPSDIAVEWESNGQPENNYKTTPPVLDSDGSFFLYSRLTVDKSRWQEGNVFSCSVMHEALHNHYTQKSLSLSLGK chain 2: EVQLLESGGGLVQPGGSLRLSCAASGFTFGNYDMAWVRQAPGKRPEWVSSIDTGGDITHYADSVKGRFTISRDNAKNTLYLQMNSLRPEDTAVYWCATDEEYALGPNEFDYYGQGTLVTVSSGGGGSGGGGSGPPCPPCPAPEFLGGPSVFLFPPKPKDTLMISRTPEVTCVVVDVSQEDPEVQFNWYVDGVEVHNAKTKPREEQFNSTYRVVSVLTVLHQDWLNGKEYKCKVSNKGLPSSIEKTISKAKGQPREPQVCTLPPSQEEMTKNQVSLSCAVKGFYPSDIAVEWESNGQPENNYKTTPPVLDSDGSFFLVSRLTVDKSRWQEGNVFSCSVMHEALHNHYTQKSLSLSLGK

— US20250171562A1
